Test results published in PMC4161437, “Structural Correlates of Rotavirus Cell Entry” (PLoS Pathogens, 2014).

Experiments:
[1] = molecular target: T1, rhesus rotavirus (RRV) VP4 hydrophobic-loop mutant V391D, recombinant (rhesus rotavirus (RRV; G3 serotype), UniProt P12473 1-776, V391D); assay: co-sedimentation; recoating: VP4 added to purified DLPs in at least 5-fold excess at pH 5.2 (sodium acetate), 1.5 h at room temperature; then VP7 in at least 3-fold molar excess with calcium, 30 min; recoated particles separated from excess components by cesium chloride gradient centrifugation; SDS-PAGE and fluorescence imaging of the purified particles; details: both partners purified
T1 construct: VP4 of rhesus rotavirus (RRV; G3 serotype) with V391D in a hydrophobic loop of VP5*; also called V391D VP4; VP4 fusion-loop mutant; source: baculovirus-infected insect cells, purified (AmSO4 precipitation, Phenyl HP, HiTrap Q, S200)

[2] = molecular target: T2, rhesus rotavirus (RRV) outer-layer protein VP4, recombinant, wild type (rhesus rotavirus (RRV; G3 serotype), UniProt P12473 1-776, amine-specific Atto dye in some preparations (dye combinations varied)); assay: as above; details: both partners purified
T2 construct: VP4, outer capsid spike protein of rhesus rotavirus (RRV; G3 serotype); recombinant, not cleaved by trypsin when added to DLPs; Recoated particles were treated with trypsin (cleavage to VP8* and VP5*) only after recoating; also called WT VP4; VP4 wt; source: baculovirus-infected insect cells, purified (AmSO4 precipitation, Phenyl HP, HiTrap Q, S200)

B1: rhesus rotavirus (RRV) outer-layer glycoprotein VP7, recombinant, wild type (natural protein)
chain: QNYGINLPITGSMDTAYANSTQEETFLTSTLCLYYPTEAATEINDNSWKDTLSQLFLTKGWPTGSVYFKEYTDIASFSVDPQLYCDYNVVLMKYDATLQLDMSELADLILNEWLCNPMDITLYYYQQTDEANKWISMGSSCTIKVCPLNTQTLGIGCLTTDTATFEEVATAEKLVITDVVDGVNHKLDVTTATCTIRNCKKLGPRENVAVIQVGGSDVLDITADPTTAPQTERMMRINWKKWWQVFYTVVDYVNQIIQAMSKRSRSLNSAAFYYRI
modifications: amine-specific Atto dye in some preparations (dye combinations varied)
notes: VP7, outer capsid glycoprotein of rhesus rotavirus (RRV; G3 serotype); Ca2+-stabilized trimer; also called WT VP7; VP7 wt
[1]
  binding result: binds
[2]
  binding result: binds
